Data taken from patent US20240352419A1, “METHODS AND COMPOSITIONS FOR DIFFERENTIATION OF PLURIPOTENT STEM CELLS AND DERIVED HEMATOPOIETIC LINEAGE CELLS” (NUWACELL BIOTECHNOLOGIES CO., LTD., priority 2022, published 2024).

How the values were obtained:
K562 cells = assay: Cytotoxicity of Stage 3 iNK cells by CFSE/7AAD assay; assay type: cell-based; conditions: added to Stage 3 medium (IL-10 20 ng/mL, IL-18 50 ng/mL), E:T 3:1, 4 hr, FIG. 13A
Procedure: hiPSCs were prepared as described in CN108373998B. On Day −1, Embryoid body (EB) formation (Stage 1-1) was carried out by placing individualized hiPSCs in E8 medium containing 10 μM Blebbistatin in T25 flasks on a bellydancer and culture overnight. On Day 0, lateral mesoderm differentiation (Stage 1-2) was initiated by changing the medium to a Stage 1-2 differentiation medium comprising IF-4 basal medium and supplemented with BMP4 (25 ng/mL), VEGF (15 ng/ml), bFGF (0.5 ng/mL) and CHIR99021 (4 μM) for 2 days. On Day 2, lateral mesoderm differentiation (Stage 1-3) continued for 1 day in a Stage 1-3 differentiation medium comprising IF-4 basal medium and supplemented with BMP4 (25 ng/mL), VEGF (50 ng/mL) and bFGF (0.5 ng/mL) and CHIR99021 (1 μM). On Day 3, HE specification (Stage 1-4) was initiated by adding a Stage 1-4 differentiation medium comprising IF-4 basal medium and supplemented with VEGF (15 ng/ml), bFGF (5 ng/ml), XAV939 (5 μM) for 1 day. […] On Day 11 of co-culture, iNK cells were collected and stained with CD56-PE antibody (BD, #555516), the percentage of CD56+ cells was analyzed by flow cytometry. The cytotoxicity of Stage 3 iNK cells towards K562 cells was detected by CFSE/7AAD assay after 4 hr co-culture at E:T of 3:1.

iNK cells = assay: Stage 3 expansion of iNK cells co-cultured with feeder cells; assay type: cell-based, human; conditions: IL-18 (10-50 ng/mL) combined with IL-2 (100 IU/mL) vs IL-2 only, Stage 3, 2 weeks, FIG. 13B
Procedure: hiPSCs were prepared as described in CN108373998B. On Day −1, Embryoid body (EB) formation (Stage 1-1) was carried out by placing individualized hiPSCs in E8 medium containing 10 μM Blebbistatin in T25 flasks on a bellydancer and culture overnight. On Day 0, lateral mesoderm differentiation (Stage 1-2) was initiated by changing the medium to a Stage 1-2 differentiation medium comprising IF-4 basal medium and supplemented with BMP4 (25 ng/ml), VEGF (15 ng/ml), bFGF (0.5 ng/ml) and CHIR99021 (4 μM) for 2 days. On Day 2, lateral mesoderm differentiation (Stage 1-3) continued for 1 day in a Stage 1-3 differentiation medium comprising IF-4 basal medium and supplemented with BMP4 (25 ng/ml), VEGF (15 ng/mL) and bFGF (0.5 ng/mL) and CHIR99021 (1 μM). On Day 3, HE specification (Stage 1-4) was initiated by adding a Stage 1-4 differentiation medium comprising IF-4 basal medium and supplemented with VEGF (15 ng/ml), bFGF (5 ng/ml), XAV939 (5 μM) for 1 day. On Day 4 (the end of Stage 1-4), HP differentiation (Stage 1-5) in was initiated by adding a Stage 1-5 differentiation medium comprising IF-4 basal medium and supplemented with SCF (10 ng/ml), Flt3L (10 ng/ml), VEGF (15 ng/ml) and bFGF (5 ng/mL). […] On Day 14 of co-culture, iNK cells were collected and stained with CD56-PE antibody (BD, #555516), and the percentage of CD56+ cells was analyzed by flow cytometry. […]

IL-18: interleukin added to Stage 3 expansion and maturation medium
cytotoxicity of iNK cells (K562 cells): significantly improve
expansion fold of iNK cells (iNK cells): improve the expansion fold
